Results on five molecules are retold here after paper PMC9786777, “Phosphorylation of Thr9 Affects the Folding Landscape of the N-Terminal Segment of Human AGT Enhancing Protein Aggregation of Disease-Causing Mutants” (Molecules, 2022).

For series [1], the target named is alanine:glyoxylate aminotransferase (AGT) NTT, 1-21 (UniProt P21549). Put plainly: NMR translational diffusion (DOSY), self-association. The note with it: sites T9.
Series [2] concerns the molecule itself. Briefly: dynamic light scattering; holo-AGT as purified, 10 µM (in subunit), Na-HEPES 20 mM NaCl 200 mM pH 7.4, 25 °C; hydrodynamic radius compared with the dimer of the crystal structure.

For “alanine:glyoxylate aminotransferase (AGT) NTT, 1-21 (from UniProt P21549) NTT-AGT T9E peptide”, the “other: hydrodynamic radius” value in series [1] (reference: NTT-AGT WT peptide) was “none in both; reference 12 ± 2”.

As for “alanine:glyoxylate aminotransferase (AGT) NTT, 1-21 (from UniProt P21549) NTT-AGT T9E-P11L peptide”, the “other: hydrodynamic radius” value in series [1] (reference: NTT-AGT P11L peptide) is “none in both; reference 12 ± 2”.

B1: alanine:glyoxylate aminotransferase (AGT) WT, holo-protein (enzyme, human, UniProt P21549 1-392, looked up)
chain: MASHKLLVTPPKALLKPLSIPNQLLLGPGPSNLPPRIMAAGGLQMIGSMSKDMYQIMDEIKEGIQYVFQTRNPLTLVISGSGHCALEAALVNVLEPGDSFLVGANGIWGQRAVDIGERIGARVHPMTKDPGGHYTLQEVEEGLAQHKPVLLFLTHGESSTGVLQPLDGFGELCHRYKCLLLVDSVASLGGTPLYMDRQGIDILYSGSQKALNAPPGTSLISFSDKAKKKMYSRKTKPFSFYLDIKWLANFWGCDDQPRMYHHTIPVISLYSLRESLALIAEQGLENSWRQHREAAAYLHGRLQALGLQLFVKDPALRLPTVTTVAVPAGYDWRDIVSYVIDHFDIEIMGGLGPSTGKVLRIGLLGCNATRENVDRVTEALRAALQHCPKKKL
modifications: PLP covalently bound to K209 (holo-protein)
notes: alanine:glyoxylate aminotransferase (AGT), human, 392 residues; also called holo-AGT
Regarding B1, the binding result in series [2] was “binds”.

B2: AGT WT with the T9E mutation, holo-protein (enzyme, human, UniProt P21549 1-392, looked up)
chain: MASHKLLVEPPKALLKPLSIPNQLLLGPGPSNLPPRIMAAGGLQMIGSMSKDMYQIMDEIKEGIQYVFQTRNPLTLVISGSGHCALEAALVNVLEPGDSFLVGANGIWGQRAVDIGERIGARVHPMTKDPGGHYTLQEVEEGLAQHKPVLLFLTHGESSTGVLQPLDGFGELCHRYKCLLLVDSVASLGGTPLYMDRQGIDILYSGSQKALNAPPGTSLISFSDKAKKKMYSRKTKPFSFYLDIKWLANFWGCDDQPRMYHHTIPVISLYSLRESLALIAEQGLENSWRQHREAAAYLHGRLQALGLQLFVKDPALRLPTVTTVAVPAGYDWRDIVSYVIDHFDIEIMGGLGPSTGKVLRIGLLGCNATRENVDRVTEALRAALQHCPKKKL
modifications: PLP covalently bound to K209 (holo-protein)
notes: alanine:glyoxylate aminotransferase (AGT), human, 392 residues, phosphomimetic T9E; also called T9E (WT background)
With B2, the binding result in series [2] is recorded as “binds”.

B3: AGT WT with the T9A mutation, holo-protein (enzyme, human, UniProt P21549 1-392, looked up)
chain: MASHKLLVAPPKALLKPLSIPNQLLLGPGPSNLPPRIMAAGGLQMIGSMSKDMYQIMDEIKEGIQYVFQTRNPLTLVISGSGHCALEAALVNVLEPGDSFLVGANGIWGQRAVDIGERIGARVHPMTKDPGGHYTLQEVEEGLAQHKPVLLFLTHGESSTGVLQPLDGFGELCHRYKCLLLVDSVASLGGTPLYMDRQGIDILYSGSQKALNAPPGTSLISFSDKAKKKMYSRKTKPFSFYLDIKWLANFWGCDDQPRMYHHTIPVISLYSLRESLALIAEQGLENSWRQHREAAAYLHGRLQALGLQLFVKDPALRLPTVTTVAVPAGYDWRDIVSYVIDHFDIEIMGGLGPSTGKVLRIGLLGCNATRENVDRVTEALRAALQHCPKKKL
modifications: PLP covalently bound to K209 (holo-protein)
notes: alanine:glyoxylate aminotransferase (AGT), human, 392 residues, control mutation T9A; also called T9A (WT background)
In the case of B3, in series [2], the binding result is recorded as “binds”.
